Measured values published in publication PMC10786891, “Massively parallel profiling of RNA-targeting CRISPR-Cas13d”.

Molecular target: T1, EsCas13d, nuclease-dead (Eubacterium siraeum, UniProt B0MS50, R295A;H300A;R849A;H854A)
T1 sequence: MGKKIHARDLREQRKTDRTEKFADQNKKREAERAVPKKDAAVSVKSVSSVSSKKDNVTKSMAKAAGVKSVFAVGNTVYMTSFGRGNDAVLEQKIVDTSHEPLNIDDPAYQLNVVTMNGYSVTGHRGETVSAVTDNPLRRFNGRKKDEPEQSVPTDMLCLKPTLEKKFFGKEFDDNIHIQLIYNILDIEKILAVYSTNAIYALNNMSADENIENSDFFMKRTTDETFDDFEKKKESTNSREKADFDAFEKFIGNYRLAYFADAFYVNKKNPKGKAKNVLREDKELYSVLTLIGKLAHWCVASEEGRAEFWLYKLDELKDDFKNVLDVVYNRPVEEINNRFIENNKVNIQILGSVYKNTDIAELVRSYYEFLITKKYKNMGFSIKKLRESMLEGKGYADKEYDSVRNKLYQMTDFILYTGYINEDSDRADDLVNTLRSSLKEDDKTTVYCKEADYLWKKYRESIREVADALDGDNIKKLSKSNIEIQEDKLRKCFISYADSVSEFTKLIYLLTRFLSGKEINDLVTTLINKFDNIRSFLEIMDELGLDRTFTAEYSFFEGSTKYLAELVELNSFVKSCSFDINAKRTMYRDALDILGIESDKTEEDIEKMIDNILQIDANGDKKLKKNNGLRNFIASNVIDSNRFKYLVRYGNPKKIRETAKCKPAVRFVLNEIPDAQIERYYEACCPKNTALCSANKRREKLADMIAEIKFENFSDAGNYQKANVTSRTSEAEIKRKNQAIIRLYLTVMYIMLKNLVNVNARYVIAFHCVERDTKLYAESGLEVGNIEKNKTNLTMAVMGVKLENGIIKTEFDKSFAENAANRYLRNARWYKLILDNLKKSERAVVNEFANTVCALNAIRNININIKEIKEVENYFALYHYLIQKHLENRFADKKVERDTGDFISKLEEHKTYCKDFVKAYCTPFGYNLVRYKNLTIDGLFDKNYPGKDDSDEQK
Assay: crRNA (strand 1, pre-loaded); Mg2+; 40 mM Tris-HCl pH 7.5, 150 mM NaCl, 6 mM MgCl2, 1 mM DTT, 0.1% Tween-20, 0.2 mg/ml BSA; 25 C; 10 min per concentration, then washed
Conditions: tags: His6-TwinStrep-SUMO cleaved; N-terminal SNAP kept (SNAP-Surface 488); label: 3' end held by stalled T7 RNA polymerase

Binder | Kd
target 1 insA 3' of 15,insA 3' of 7 (mixed) RNA 1: CACCCGUGCAAAAAUGCAGGGGUCUAAAACUGAGCGGAUAACCUCUCUAUGG RNA 2: GGGAAUGGAUCCACAUCUACGAAUUCGUACCAUAGAGAAGGUUAUCACGCUCACCGAGAUCGGAAGAGCACACGU | 4.65 ± 0.17 nM
target 1 A16C,U19C (mixed) RNA 1: CACCCGUGCAAAAAUGCAGGGGUCUAAAACUGAGCGGAUAACCUCUCUAUGG RNA 2: GGGAAUGGAUCCACAUCUACGAAUUCGUACCACAGCGAGGUUAUCCGCUCACCGAGAUCGGAAGAGCACACGU | 94 ± 21 nM
target 1 insC 3' of 18,insC 3' of 9 (mixed) RNA 1: CACCCGUGCAAAAAUGCAGGGGUCUAAAACUGAGCGGAUAACCUCUCUAUGG RNA 2: GGGAAUGGAUCCACAUCUACGAAUUCGUACCAUACGAGAGGUUACUCCGCUCACCGAGAUCGGAAGAGCACACGU | 58 ± 8 nM
target 1 insA 3' of 10,insU 3' of 9 (mixed) RNA 1: CACCCGUGCAAAAAUGCAGGGGUCUAAAACUGAGCGGAUAACCUCUCUAUGG RNA 2: GGGAAUGGAUCCACAUCUACGAAUUCGUACCAUAGAGAGGUUAAUUCCGCUCACCGAGAUCGGAAGAGCACACGU | 13.9 ± 0.5 nM
target 1 U11C,C22U (mixed) RNA 1: CACCCGUGCAAAAAUGCAGGGGUCUAAAACUGAGCGGAUAACCUCUCUAUGG RNA 2: GGGAAUGGAUCCACAUCUACGAAUUCGUAUCAUAGAGAGGCUAUCCGCUCACCGAGAUCGGAAGAGCACACGU | 21.2 ± 1.7 nM
target 1 insC 3' of 15,insA 3' of 8 (mixed) RNA 1: CACCCGUGCAAAAAUGCAGGGGUCUAAAACUGAGCGGAUAACCUCUCUAUGG RNA 2: GGGAAUGGAUCCACAUCUACGAAUUCGUACCAUAGAGCAGGUUAUACCGCUCACCGAGAUCGGAAGAGCACACGU | 20.1 ± 2.1 nM
target 1 insU 3' of 13,insA 3' of 2 (mixed) RNA 1: CACCCGUGCAAAAAUGCAGGGGUCUAAAACUGAGCGGAUAACCUCUCUAUGG RNA 2: GGGAAUGGAUCCACAUCUACGAAUUCGUACCAUAGAGAGUGUUAUCCGCUCAACCGAGAUCGGAAGAGCACACGU | 16.2 ± 1.8 nM
target 1 insC 3' of 10,insG 3' of 4 (mixed) RNA 1: CACCCGUGCAAAAAUGCAGGGGUCUAAAACUGAGCGGAUAACCUCUCUAUGG RNA 2: GGGAAUGGAUCCACAUCUACGAAUUCGUACCAUAGAGAGGUUCAUCCGCGUCACCGAGAUCGGAAGAGCACACGU | 8.6 ± 0.4 nM
target 1 insU 3' of 13,insC 3' of 1 (mixed) RNA 1: CACCCGUGCAAAAAUGCAGGGGUCUAAAACUGAGCGGAUAACCUCUCUAUGG RNA 2: GGGAAUGGAUCCACAUCUACGAAUUCGUACCAUAGAGAGUGUUAUCCGCUCACCCGAGAUCGGAAGAGCACACGU | 21 ± 4 nM
target 1 insA 3' of 22,insG 3' of 10 (mixed) RNA 1: CACCCGUGCAAAAAUGCAGGGGUCUAAAACUGAGCGGAUAACCUCUCUAUGG RNA 2: GGGAAUGGAUCCACAUCUACGAAUUCGUACACAUAGAGAGGUUGAUCCGCUCACCGAGAUCGGAAGAGCACACGU | 55 ± 13 nM
target 1 insU 3' of 13,insG 3' of 1 (mixed) RNA 1: CACCCGUGCAAAAAUGCAGGGGUCUAAAACUGAGCGGAUAACCUCUCUAUGG RNA 2: GGGAAUGGAUCCACAUCUACGAAUUCGUACCAUAGAGAGUGUUAUCCGCUCAGCCGAGAUCGGAAGAGCACACGU | 11.7 ± 1.7 nM
target 1 insC 3' of 11,insA 3' of 10 (mixed) RNA 1: CACCCGUGCAAAAAUGCAGGGGUCUAAAACUGAGCGGAUAACCUCUCUAUGG RNA 2: GGGAAUGGAUCCACAUCUACGAAUUCGUACCAUAGAGAGGUCUAAUCCGCUCACCGAGAUCGGAAGAGCACACGU | 30 ± 4 nM
target 1 G15U,C22A (mixed) RNA 1: CACCCGUGCAAAAAUGCAGGGGUCUAAAACUGAGCGGAUAACCUCUCUAUGG RNA 2: GGGAAUGGAUCCACAUCUACGAAUUCGUAACAUAGAUAGGUUAUCCGCUCACCGAGAUCGGAAGAGCACACGU | 40 ± 6 nM
target 1 U11A,C21A (mixed) RNA 1: CACCCGUGCAAAAAUGCAGGGGUCUAAAACUGAGCGGAUAACCUCUCUAUGG RNA 2: GGGAAUGGAUCCACAUCUACGAAUUCGUACAAUAGAGAGGAUAUCCGCUCACCGAGAUCGGAAGAGCACACGU | 64 ± 24 nM
target 1 insA 3' of 19,insG 3' of 9 (mixed) RNA 1: CACCCGUGCAAAAAUGCAGGGGUCUAAAACUGAGCGGAUAACCUCUCUAUGG RNA 2: GGGAAUGGAUCCACAUCUACGAAUUCGUACCAUAAGAGAGGUUAGUCCGCUCACCGAGAUCGGAAGAGCACACGU | 37 ± 4 nM
target 1 insA 3' of 15,insU 3' of 13 (mixed) RNA 1: CACCCGUGCAAAAAUGCAGGGGUCUAAAACUGAGCGGAUAACCUCUCUAUGG RNA 2: GGGAAUGGAUCCACAUCUACGAAUUCGUACCAUAGAGAAGUGUUAUCCGCUCACCGAGAUCGGAAGAGCACACGU | 19 ± 4 nM
target 1 insA 3' of 21,insG 3' of 6 (mixed) RNA 1: CACCCGUGCAAAAAUGCAGGGGUCUAAAACUGAGCGGAUAACCUCUCUAUGG RNA 2: GGGAAUGGAUCCACAUCUACGAAUUCGUACCAAUAGAGAGGUUAUCCGGCUCACCGAGAUCGGAAGAGCACACGU | 22.1 ± 2.3 nM
target 1 U8G,A16G (mixed) RNA 1: CACCCGUGCAAAAAUGCAGGGGUCUAAAACUGAGCGGAUAACCUCUCUAUGG RNA 2: GGGAAUGGAUCCACAUCUACGAAUUCGUACCAUAGGGAGGUUAGCCGCUCACCGAGAUCGGAAGAGCACACGU | 39.4 ± 3.5 nM
target 1 insC 3' of 13,insG 3' of 7 (mixed) RNA 1: CACCCGUGCAAAAAUGCAGGGGUCUAAAACUGAGCGGAUAACCUCUCUAUGG RNA 2: GGGAAUGGAUCCACAUCUACGAAUUCGUACCAUAGAGAGCGUUAUCGCGCUCACCGAGAUCGGAAGAGCACACGU | 16.1 ± 1 nM
target 1 A1U (mixed) RNA 1: CACCCGUGCAAAAAUGCAGGGGUCUAAAACUGAGCGGAUAACCUCUCUAUGG RNA 2: GGGAAUGGAUCCACAUCUACGAAUUCGUACCAUAGAGAGGUUAUCCGCUCUCCGAGAUCGGAAGAGCACACGU | 8.5 ± 0.6 nM
target 1 C6G,U10G (mixed) RNA 1: CACCCGUGCAAAAAUGCAGGGGUCUAAAACUGAGCGGAUAACCUCUCUAUGG RNA 2: GGGAAUGGAUCCACAUCUACGAAUUCGUACCAUAGAGAGGUGAUCGGCUCACCGAGAUCGGAAGAGCACACGU | 15.2 ± 0.9 nM
target 1 insC 3' of 17,insU 3' of 16 (mixed) RNA 1: CACCCGUGCAAAAAUGCAGGGGUCUAAAACUGAGCGGAUAACCUCUCUAUGG RNA 2: GGGAAUGGAUCCACAUCUACGAAUUCGUACCAUAGCAUGAGGUUAUCCGCUCACCGAGAUCGGAAGAGCACACGU | 40 ± 6 nM
target 1 C6A,A18C (mixed) RNA 1: CACCCGUGCAAAAAUGCAGGGGUCUAAAACUGAGCGGAUAACCUCUCUAUGG RNA 2: GGGAAUGGAUCCACAUCUACGAAUUCGUACCAUCGAGAGGUUAUCAGCUCACCGAGAUCGGAAGAGCACACGU | 54 ± 4 nM
target 1 A1C (mixed) RNA 1: CACCCGUGCAAAAAUGCAGGGGUCUAAAACUGAGCGGAUAACCUCUCUAUGG RNA 2: GGGAAUGGAUCCACAUCUACGAAUUCGUACCAUAGAGAGGUUAUCCGCUCCCCGAGAUCGGAAGAGCACACGU | 24 ± 4 nM
target 1 A1G,U19C (mixed) RNA 1: CACCCGUGCAAAAAUGCAGGGGUCUAAAACUGAGCGGAUAACCUCUCUAUGG RNA 2: GGGAAUGGAUCCACAUCUACGAAUUCGUACCACAGAGAGGUUAUCCGCUCGCCGAGAUCGGAAGAGCACACGU | 35 ± 5 nM
target 1 MT (mixed) RNA 1: CACCCGUGCAAAAAUGCAGGGGUCUAAAACUGAGCGGAUAACCUCUCUAUGG RNA 2: GGGAAUGGAUCCACAUCUACGAAUUCGUACCAUAGAGAGGUUAUCCGCUCACCGAGAUCGGAAGAGCACACGU | 8.62 ± 0.06 nM
target 1 U10A,C22G (mixed) RNA 1: CACCCGUGCAAAAAUGCAGGGGUCUAAAACUGAGCGGAUAACCUCUCUAUGG RNA 2: GGGAAUGGAUCCACAUCUACGAAUUCGUAGCAUAGAGAGGUAAUCCGCUCACCGAGAUCGGAAGAGCACACGU | 76 ± 25 nM
target 1 U19C (mixed) RNA 1: CACCCGUGCAAAAAUGCAGGGGUCUAAAACUGAGCGGAUAACCUCUCUAUGG RNA 2: GGGAAUGGAUCCACAUCUACGAAUUCGUACCACAGAGAGGUUAUCCGCUCACCGAGAUCGGAAGAGCACACGU | 21 ± 1.3 nM
